Laboratory results taken from US20120165267A1 (Genentech, published 2012).
Numbering of substitutions follows the chain as printed.

B1: DR4-selective phage clone 8 (ligand)
chain: SEETISTVQEKQQNISPLVRERGPQRVAAHITGTRGRSNTLSSPNSKNEKALGRKINSWESSRSGHSFLSNLHLRNGELVIHEKGFYYIYSQTAFRFSEEIKEVTRNDKQMVQYIYKWTDYPDPILLMKSARNSCWSKDAEYGLYSIYQGGIFELKENDRIFVSVTNEHLIDMDHEASFFGAFLVG
notes: also called DR4-8
B2: DR4-selective phage clone 9 (ligand)
chain: B1 chain with V104R
notes: also called DR4-9

Columns and labels:
[1] = target: T1, BSA (UniProt P02769 25-607); test: spot ELISA, phage on coated protein
T1 construct: Control protein of the spot ELISA

[2] = target: T2, DR5-IgG (human, UniProt O14763 56-184); test: spot ELISA, phage on coated protein
T2 construct: also called Apo-2-IgG; not shown: IgG part; prepared as in WO98/51793, not described here
T2 sequence (O14763 56-184): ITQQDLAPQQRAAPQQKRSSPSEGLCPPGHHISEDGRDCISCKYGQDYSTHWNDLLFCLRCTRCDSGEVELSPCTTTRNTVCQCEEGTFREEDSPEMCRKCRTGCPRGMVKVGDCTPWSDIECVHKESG

T1 sequence (P02769 25-607 limits assumed): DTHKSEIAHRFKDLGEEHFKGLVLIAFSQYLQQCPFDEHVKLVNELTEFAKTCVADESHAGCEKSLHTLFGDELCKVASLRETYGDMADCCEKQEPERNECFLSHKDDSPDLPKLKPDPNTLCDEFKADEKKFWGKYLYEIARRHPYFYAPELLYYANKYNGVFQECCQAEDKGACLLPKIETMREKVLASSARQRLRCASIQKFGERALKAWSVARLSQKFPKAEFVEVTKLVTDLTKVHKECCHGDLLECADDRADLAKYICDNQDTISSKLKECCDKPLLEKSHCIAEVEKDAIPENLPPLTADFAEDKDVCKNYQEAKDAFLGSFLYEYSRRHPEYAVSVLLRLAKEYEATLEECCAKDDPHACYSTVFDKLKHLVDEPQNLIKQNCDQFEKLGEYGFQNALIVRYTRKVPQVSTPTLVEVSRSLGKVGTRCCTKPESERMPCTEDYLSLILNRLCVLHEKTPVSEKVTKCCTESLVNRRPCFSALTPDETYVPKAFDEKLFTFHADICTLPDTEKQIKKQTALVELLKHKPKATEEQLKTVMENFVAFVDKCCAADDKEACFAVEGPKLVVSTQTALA

Row | Binder | binding result [1] | binding result [2]
1 | B1 | no binding | no binding
2 | B2 | no binding | no binding
